Target: T1, PODXL on the surface of hESCs (human, UniProt O00592 23-558, glycosylated (sites not given))
T1 construct: also called human embryonic stem cells
T1 sequence: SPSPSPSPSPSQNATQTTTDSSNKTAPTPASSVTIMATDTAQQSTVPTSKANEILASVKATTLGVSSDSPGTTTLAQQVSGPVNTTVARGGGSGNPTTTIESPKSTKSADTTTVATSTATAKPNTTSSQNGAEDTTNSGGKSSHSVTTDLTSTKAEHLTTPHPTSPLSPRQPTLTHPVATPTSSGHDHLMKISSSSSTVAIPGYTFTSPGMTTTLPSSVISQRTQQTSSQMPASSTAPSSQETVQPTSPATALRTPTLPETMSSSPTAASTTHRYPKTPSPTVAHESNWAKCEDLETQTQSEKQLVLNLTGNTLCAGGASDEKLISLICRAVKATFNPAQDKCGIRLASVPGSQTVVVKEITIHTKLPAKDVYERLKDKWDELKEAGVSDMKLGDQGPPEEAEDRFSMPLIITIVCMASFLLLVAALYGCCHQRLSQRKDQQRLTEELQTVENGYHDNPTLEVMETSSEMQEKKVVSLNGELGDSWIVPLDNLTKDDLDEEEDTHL
Assay: kinetics of binding to PODXL on the surface of hESCs; method not stated

B1: mAb 84 (antibody, V domains shown)
VH: QVQLQQSGGGLVQPGGSMKLSCVASGFTFSNYWMNWVRQSPEKGLEWVAEIRLKSNNYATHYAESVKGRFTISRDDSKSSVYLQMNNLRAEDTGIYYCTGERAWGQGTTVTVSS
VL: DIELTQSPAIMSASPGEKVTMTCSASSSVNYMYWYQQKPGSSPRLLIYDTSNLASGVPVRFSGSGSGTSYSLTISRMEAEDAATYYCQQWSSYPYTFGGGTKLEIKR
Work on B1 yielded a Kd of 40 nM, a koff of 0.0029 s⁻¹ and a kon of 71000 M⁻¹ s⁻¹.

Reference: patent US20130115627A1 (AGENCY FOR SCIENCE TECHNOLOGY AND RESEARCH, published 2013)
